Assay results reported in patent publication US20180298098A1 (VAR2 PHARMACEUTICAL, published 2018).

B1: VAR2CSA ID1-ID2a, 3D7 (Baculo) (other)
chain: NYIKGDPYFAEYATKLSFILNSSDANNPSEKIQKNNDEVCNCNESGIASVEQEQISDPSSNKTCITHSSIKANKKKVCKHVKLGVRENDKDLRVCVIEHTSLSGVENCCCQDFLRILQENCSDNKSGSSSNGSCNNKNQEACEKNLEKVLASLTNCYKCDKCKSEQSKKNNKNWIWKKSSGKEGGLQKEYANTIGLPPRTQSLCLVVCLDEKGKKTQELKNIRTNSELLKEWIIAAFHEGKNLKPSHEKKNDDNGKKLCKALEYSFADYGDLIKGTSIWDNEYTKDLELNLQKIFGKLFRKYIKKNNTAEQDTSYSSLDELRESWWNTNKKYIWLAMKHGAGMNSTTCCGDGSVTGSGSSCDDIPTIDLIPQYLRFLQEWVEHFCKQRQEKVKPVIENCKSCKESGGTCNGECKTECKNKCEVYKKFIEDCKGGDGTAGSSWVKRWDQIYKRYSKYIEDAKRNRKAGTKNCGPSSTTNAAENKCVQSDIDSFFKHLIDIGLTTPSSYLSIVLDDNICGADKAPWTTYTTYTTTEKCNKETDKSKLQQCNTAVVVNVPSPLGNTPHGYKYACQCKIPTNEETCDDRKEYMNQWSCGSARTMKRGYKNDNYELCKYNGVDVKPTTVRSNSSKLD
notes: not shown: C-terminal V5 and His tag of the modified pAcGP67-A vector
B2: VAR2CSA ID1-DBL2Xa, 3D7 (Baculo) (other)
chain: LSFILNSSDANNPSEKIQKNNDEVCNCNESGIASVEQEQISDPSSNKTCITHSSIKANKKKVCKHVKLGVRENDKDLRVCVIEHTSLSGVENCCCQDFLRILQENCSDNKSGSSSNGSCNNKNQEACEKNLEKVLASLTNCYKCDKCKSEQSKKNNKNWIWKKSSGKEGGLQKEYANTIGLPPRTQSLCLVVCLDEKGKKTQELKNIRTNSELLKEWIIAAFHEGKNLKPSHEKKNDDNGKKLCKALEYSFADYGDLIKGTSIWDNEYTKDLELNLQKIFGKLFRKYIKKNNTAEQDTSYSSLDELRESWWNTNKKYIWLAMKHGAGMNSTTCCGDGSVTGSGSSCDDIPTIDLIPQYLRFLQEWVEHFCKQRQEKVKPVIENCKSCKESGGTCNGECKTECKNKCEVYKKFIEDCKGGDGTAGSSWVKRWDQIYKRYSKYIEDAKRNRKAGTKNCGPSSTTNAA
notes: as for B1
B3: VAR2CSA ID1-DBL2Xb, 3D7 (Baculo) (other)
chain: NYIKGDPYFAEYATKLSFILNSSDANNPSEKIQKNNDEVCNCNESGIASVEQEQISDPSSNKTCITHSSIKANKKKVCKHVKLGVRENDKDLRVCVIEHTSLSGVENCCCQDFLRILQENCSDNKSGSSSNGSCNNKNQEACEKNLEKVLASLTNCYKCDKCKSEQSKKNNKNWIWKKSSGKEGGLQKEYANTIGLPPRTQSLCLVVCLDEKGKKTQELKNIRTNSELLKEWIIAAFHEGKNLKPSHEKKNDDNGKKLCKALEYSFADYGDLIKGTSIWDNEYTKDLELNLQKIFGKLFRKYIKKNNTAEQDTSYSSLDELRESWWNTNKKYIWLAMKHGAGMNSTTCCGDGSVTGSGSSCDDIPTIDLIPQYLRFLQEWVEHFCKQRQEKVKPVIENCKSCKESGGTCNGECKTECKNKCEVYKKFIEDCKGGDGTAGSSWVKRWDQIYKRYSKYIEDAKRNRKAGTKNCGPSSTTNAAENKCVQSDIDSFFKHLIDIGLTTPSSYLSIVLDDNICGADKAPWTTYTTYTTTEKCNKETDKSKLQQCNTAVVVNVPSPLGNTPHGYKY
notes: The 3D7 forward primer begins at LSFILN; not shown: C-terminal V5 and His tag of the modified pAcGP67-A vector

Legend:
[1] = target: CSPG (bovine) (D8428, Sigma) (bovine) (UniProt P21793); assay: quartz crystal microbalance (Attana A100), CSPG coated; FCR3 Baculo
CSPG (bovine) (D8428, Sigma) (bovine), sequence (P21793 31-360): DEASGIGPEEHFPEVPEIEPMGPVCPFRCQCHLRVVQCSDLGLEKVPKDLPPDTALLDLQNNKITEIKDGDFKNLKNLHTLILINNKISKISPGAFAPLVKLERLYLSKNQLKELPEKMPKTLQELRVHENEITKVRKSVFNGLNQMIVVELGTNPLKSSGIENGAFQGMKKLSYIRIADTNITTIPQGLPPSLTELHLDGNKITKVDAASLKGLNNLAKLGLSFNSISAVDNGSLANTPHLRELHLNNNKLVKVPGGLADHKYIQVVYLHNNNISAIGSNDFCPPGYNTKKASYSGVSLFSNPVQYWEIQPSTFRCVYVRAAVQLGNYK

[2] = target: CSPG (bovine) (D8428, Sigma) (bovine) (UniProt P21793); assay: quartz crystal microbalance (Attana A100), CSPG coated; 3D7 Baculo
[3] = target: T1, CSPG (bovine) (D8428, Sigma) (bovine, UniProt P21793 31-360, carries chondroitin sulfate A (CSA) glycosaminoglycan chain(s); attachment site not stated); assay: as above
T1 construct: Commercial proteoglycan coated on the chip or plate; also called chondroitin sulfate proteoglycan; CSA proteoglycan (CSPG)
T1 sequence (P21793 31-360): as above

[4] = target: T1, CSPG (bovine) (D8428, Sigma); assay: quartz crystal microbalance (Attana A100), CSPG coated
Procedure: All buffers and reagents were filtered to 0.2 μm. The ligand was CSPG (Bovine) (D8428, Sigma) or HSPG (H4777, Sigma), coated at a concentration of 100 μg/ml. Coating was done in steady state by adding ligand solution and incubation 30 minutes at room temperature. This was followed by blocking the plate with PBS containing 0.1% Ig-free BSA (BSA-50, Rockland), 30 minutes at room temperature. The Attana A100 was washed with 1% SDS prior to every experiment, using the manufacturers predefined daily wash program. Following the wash, the running buffer was switched to PBS at a flow rate of 25 μL/min, at 25° C., and the machine was allowed to stabilize at a maximum change in frequency of 0.5 Hz/min. […] Prior to sample injection PBS was injected as a blank. Analyte was injected in a 1:3 dilution series (0.25 μg/ml-60 μg/ml) starting with the lowest concentration. Association time was set to 84 seconds and disassociation time to 5 minutes. […] The data collected was processed in the Attester Evaluation software (Attana AB). Curves were fitted in a simple 1:1 model. kₒₙ and koff were determined by curve fitting and KD was calculated based KD=koff/kₒₙ.

| Molecule | Kd [1] [nM] | also measured |
| --- | --- | --- |
| VAR2CSA ID1-DBL3ε, FCR3 (Baculo) | 0.3 | – |
| VAR2CSA DBL2X-DBL4ε, FCR3 (Baculo) | 2.4 | – |
| VAR2CSA DBL1-ID2b, FCR3 (Baculo) | 1.5 | – |
| VAR2CSA FV2, 3D7 (Baculo) | – | Kd [2]: 8.2 nM |
| VAR2CSA FV2, FCR3 (Baculo) | 5.2 | – |
| VAR2CSA ID1-DBL4ε, FCR3 (Baculo) | 8.6 | – |
| B1 | – | Kd [3]: 5.7 nM |
| B2 | – | binding result [4]: no binding (tested: 0.25 µg/ml-60 µg/ml) |
| B3 | – | Kd [3]: 21.8 nM |
